Laboratory results reported in patent US20030175925A1, “Nicotinamide ribonucleoside kinase” (priority 2001, published 2003).

B1: NadR H. influenzae: N-truncated NadR protein from H. influenzae, amino acids 38-407, both NMNATse and NRKse domains (protein, UniProt P44308 38-407, looked up, fragment)
chain: YNKHTQFLRYQEQIMSKTKEKKVGVIFGKFYPVHTGHINMIYEAFSKVDELHVIVCSDTVRDLKLFYDSKMKRMPTVQDRLRWMQQIFKYQKNQIFIHHLVEDGIPSYPNGWQSWSEAVKTLFHEKHFEPSIVFSSEPQDKAPYEKYLGLEVSLVDPDRTFFNVSATKIRTTPFQYWKFIPKEARPFFAKTVAILGGESSGKSVLVNKLAAVFNTTSAWEYGREFVFEKLGGDEQAMQYSDYPQMALGHQRYIDYAVRHSHKIAFIDTDFITTQAFCIQYEGKAHPFLDSMIKEYPFDVTILLKNNTEWVDDGLRSLGSQKQRQQFQQLLKKLLDKYKVPYIEIESPSYLDRYNQVKAVIEKVLNEEEIS
B2: NadR Salmonella: full-size NadR protein from Salmonella typhimurium, all three domains (HTH, NMNATse, NRKse), His-tagged recombinant (protein, UniProt P24518 1-410, looked up)
chain: MSSFDYLKTAIKQQGCTLQQVADASGMTKGYLSQLLNAKIKSPSAQKLEALHRFLGLEFPRRQKNIGVVFGKFYPLHTGHIYLIQRACSQVDELHIIMGYDDTRDRGLFEDSAMSQQPTVSDRLRWLLQTFKYQKNIRIHAFNEEGMEPYPHGWDVWSNGIKAFMAEKGIQPSWIYTSEEADAPQYLEHLGIETVLVDPERTFMNISGAQIRENPFRYWEYIPTEVKPFFVRTVAILGGESSGKSTLVNKLANIFNTTSAWEYGRDYVFSHLGGDEMALQYSDYDKIALGHAQYIDFAVKYANKVAFIDTDFVTTQAFCKKYEGREHPFVQALIDEYRFDLVILLENNTPWVADGLRSLGSSVDRKAFQNLLVEMLKENNIEFVHVKEADYDGRFLRCVELVKEMMGEQG
modifications: full-length His tag
notes: full-size NadR protein from Salmonella typhimurium, all three domains (HTH, NMNATse, NRKse), His-tagged recombinant
B3: NadR H. influenzae; N-terminal domain: N-terminal domain of NadR from H. influenzae, amino acids 38-212, only NMNATse domain (protein, UniProt P44308 38-212, looked up, fragment)
chain: YNKHTQFLRYQEQIMSKTKEKKVGVIFGKFYPVHTGHINMIYEAFSKVDELHVIVCSDTVRDLKLFYDSKMKRMPTVQDRLRWMQQIFKYQKNQIFIHHLVEDGIPSYPNGWQSWSEAVKTLFHEKHFEPSIVFSSEPQDKAPYEKYLGLEVSLVDPDRTFFNVSATKIRTTPFQ

Columns and labels:
[1] = discontinuous spectral NMNATse assay coupled to alcohol dehydrogenase (NAD to NADH, 340 nm); assay type: biochemical; conditions: specific activity; 37° C., pH 7.5, 2 mM ATP, NMN substrate; 1 unit = 1 micromole NADH per minute
Description: The discontinuous spectral NMNATse assay procedure (used for both human NadD2_HS and NadR) coupled to alcohol dehydrogenase (ADH) catalyzed conversion of NAD to NADH was adapted from Balducci, E., et al., Biochem. J., 310:395-400 (1995), as described in U.S. Ser. No. 09/550,398, filed Apr. 14, 2000. The assay was performed in disposable UV-transparent plastic cuvettes in a 6-cuvette autosampler of Beckman DU-640 set at 37° C. The 500 μL mixture contained 100 mM HEPES, pH 7.5, 115 mM ethanol, 40 mM semicarbazide, 2 mM ATP, 3 units of ADH (Sigma), and 0.2-2 milliunits of NMNATse (0.1-10 μg depending on specific activity). A reaction was initiated by adding 10 μL of 50 mM NMN, and monitored at 340 nm over 20 minutes. An extinction coefficient of NADH equal to 6.22 mM^−1 cm^−1 was used for rate calculations. One unit of enzyme was defined as a quantity capable of producing 1 micromole of NADH per minute.

[2] = discontinuous spectral NRKse assay coupled to NadD2_HS (NMNATse) and ADH; assay type: biochemical; conditions: for NRKse and NMNATse activity (summary in words): NMNATse and NRKse assays together; for RATIO: ratio NmR Kinase / NMNATse specific activity; for NmR Kinase: specific activity, 37° C., pH 8.0, 0.8 mM NmR, ATP, 1 unit = 1 micromole NADH per minute
Description: The discontinuous spectral NRKse assay was based on enzymatic coupling of NmR→NMN conversion to production of NAD, catalyzed by excess amounts of recombinant purified NadD2_HS enzyme (NMNATse). NAD production was further coupled to NADH conversion by ADH, as in the NMNATse assay described above.
The assay was performed in disposable UV-transparent plastic cuvettes in a 6-cuvette autosampler of Beckman DU-640 set at 37° C. The 500 μL mixture contained 100 mM Tris/HCl pH 8.0, 115 mM ethanol, 40 mM semicarbazide, 0.8 mM NmR, 0.15 units of NadD2_HS, 3 units of ADH (Sigma), and 0.2-2 milliunits of NRKse (0.2-2 μg, depending on the specific activity). A reaction was initiated by adding 50 μL of 50 mM ATP, and monitored at 340 nm over 20 minutes. An extinction coefficient of NADH equal to 6.22 mM^−1 cm^−1 was used for rate calculations. One unit of enzyme was defined as a quantity capable of producing 1 micromole of NADH per minute.

Molecule	NMNATse [1]	NRKse and NMNATse activity (summary in words) [2]	RATIO [2]	NmR Kinase [2]
B1	0.9 Un/mg	possess NRKse activity in addition to NMNATse activity	0.02	0.02 Un/mg
B2	0.04 Un/mg	possess NRKse activity in addition to NMNATse activity	125	5 Un/mg
B3	3 Un/mg	–	<0.001	<0.003 Un/mg
